Where two headings read alike, the source gives them in different places.

The target of data set [1] is T1, ELK1 (UniProt P19419 1-428).
T1 sequence: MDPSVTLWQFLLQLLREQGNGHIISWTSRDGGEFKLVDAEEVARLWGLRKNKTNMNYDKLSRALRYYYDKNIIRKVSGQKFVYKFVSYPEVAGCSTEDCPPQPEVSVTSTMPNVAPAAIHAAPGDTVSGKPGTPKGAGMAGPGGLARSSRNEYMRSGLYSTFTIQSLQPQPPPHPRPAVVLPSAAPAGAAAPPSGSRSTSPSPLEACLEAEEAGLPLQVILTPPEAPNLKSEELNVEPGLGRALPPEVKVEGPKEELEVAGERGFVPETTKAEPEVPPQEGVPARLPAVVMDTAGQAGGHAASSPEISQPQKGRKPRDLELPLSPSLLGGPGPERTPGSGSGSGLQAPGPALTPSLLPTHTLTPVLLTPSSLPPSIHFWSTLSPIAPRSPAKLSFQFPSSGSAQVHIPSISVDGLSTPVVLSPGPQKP
Briefly: EMSA. In general terms: A gel shift assay detects complexes by their altered migration in electrophoresis.

Data set [2] concerns the target T1, ELK1. The data set can be described thus: EMSA. The source holds these as a separate data set.

B1: rs8040749-A probe (reference allele) (dsDNA)
DNA 1: CCTGCCTTCCAGAAGTTCATG
DNA 2: CATGAACTTCTGGAAGGCAGG
Turning to B1, the binding result in the data set with ELK1 [1] is “no binding”.

B2: rs8040749-G probe (centenarian allele) (dsDNA)
DNA 1: CCTGCCTTCCGGAAGTTCATG
DNA 2: CATGAACTTCCGGAAGGCAGG
For the molecule B2, the binding result with ELK1 [2] is “binds”.

Source of the values: paper doi:10.1101/2023.05.17.540984.
